This is an account of results in a protein production outcome set (Wang et al. 2014).

This series can be described thus: label from the status in PepcDB records.
Consider “MDFDLSEEQRLLKESVEGLLKGSYDFDSRKKYAKEKGGWSRAVWGKFAEQGLLGLPFSEEDGGFGAGAVETMIVMEALGHSLVLEPYLPTVVIGGGFLRRAGSAAQKAAHLPGIIDGSKTFAFAQLEKNSRWDLGDVSTTAKKSGDGWVIDGEKFVVLNGEAADTLIVTARTKGGQRDRTGVGVFLVPADAKGITRKGYPTQDGLHAADITFTGVQVGADAAIGDPENALELIEAVVDDARTALCAEAVGLMDESLTTTVEYIKTRKQFGVPIGSFQVLQHRAADMFVATEQARSMAMFATMAAEFDDAKERAGAIAAAKVQIGKSGKFVGQQSIQLHGGIGMTMEAKIGHYFKRLTMIEQTFGDTDHHLARVSAGGGLI”, for which the protein production result is reported as “not failed”.
Under “MDFFFVEYRDPLVGLIILTILVFVVAVANYIWKIFANKDEEQKLEKFIKKFEMDNAHKELLRNSSLSFGNLSFLAEIFTKSGEFEKATQIYLIALEKCKDKQEREFIFLSLAKVYFKAGFLERAKEVLLQALKLRPRNIQALKLLKIVYLKLRSYKENLELLECLFELNEDVQKERDFIKALELCTFNITDEEKKKKLLEFKIEDNPMLGRLVFEKYHMFLGQNFFDICDLLYRENEAFNLENQDFLEFFYALGKISKHDDTHQFVFKNSNFKMLKILKDNSFNAGLEFSYRCSECKNVMPLFFYHCPVCYEFNTCKIIYEVKNNETH” stands “failed”; under “MDFFTDQVKKKFSDKKPESSDPEPNHNKNKPGHTEPTTHKPGHGEPTTHKPVSNTDPTTHRPATNAELMASAKIVAEAAQAAARHESDKLDKAKVAGATADILDAASRYGKLDEKSGVGQYLEKAEQYLHKYETSHSHSSTGGTGSHGNVGGHGGGAGAPAAKKEDEKSGGGHGFGDYAKMAQGFMK”, “failed”; under “MDFPQHSQHVLEQLNQQRQLGLLCDCTFVVDGVHFKAHKAVLAACSEYFKMLFVDQKDVVHLDISNAAGLGQVLEFMYTAKLSLSPENVDDVLAVATFLQMQDIITACHALKSLAEPATSPGGNAEALATEGGDKRAKEEKVATSTLSRLEQAGRSTPIGPSRDLKEER”, “failed”.
On to “MDFRALALSLLLWLVPLWACANDQLDKLTQQVYQYPTKALAQITELEKQQQTDNTSNIDKLRLSILKCQNLLQLGENEAAINLAQMGEAHAKQLKLDQARPYFFNCQADAYLNYDNIQDALPLLDSAITLARRYQQPQALIDALRLRGQLDTNTDNFSSAIEDLRIAIDIYPDIHTQTQNWIWPPEAVGSPHNS”, for which the protein production entry is “failed”.
Under “MDFSDLDYSDAGDSGWTMYLGHSSSVSLHHFDYHNGETKQEHDEDSSMVSDASSGPPYYCEETVHEDHLQQNTQYWCKSKSKNKNKNKKKVHEEQGYSERFNSSFDDTASSLEKVNSGFLQQAFPVDKLALDNQGGDNQRKRRG” stands “failed”; under “MDFSLTEEQELLLASIRELITSNFPEEYFRTCDQTGTYPKEFMQALAENGISMLGVPEEFGGIPADYVTQMLALMEISKCGAPAFLITNGQCIHSMRRFGSAEQLRKTAESTLATGDPAYALALTEPGAGSDNNSATTTWTRKNGKVYLNGQKTFITGAKEYPYMLVLARDTEPKDPKKAFTLWWVDSNKPGIKINPLHKIGWHMLSTCEVYLDNVEVDESDRVGEEGMGFLNVMYNFEMERLINAARSTGFAECAFEDAARYANQRIAFGKPIGHNQMIQEKLALMAIKIENMRNMVLKVAWQADREESLRTSAALAKLYCARTAMEVIDDAIQIMGGLGYTDEARVSRFWRDVRCERIGGGTDEIMIYVAGRQILKDYQNK”, “failed”.
With “MDGEIDADELRSKLDEETVRVVDIRSPGAFERGHIPESENVPFPSLVDEVERFEGDDEVVTVCPKGKSSVQAARLIASYEGFDGDVVSFAPGLNGWDGPLERAEDEETPADTAAADRDSDEGPAAPF” the entry was “failed”.
In the case of “MDGRPLNRTTRAVAMIAVTIPAHNEQALIGPCLQSIRVAAQHPALQGEAVEIHVALDRCTDQTGVIARAHGAITQEVCGGVGVARAAAASAAIARGAHWLACTDADTRVPPDWLMAQLACAADAFCGVVEVTDWRDHLSQTRAAFLASEIRHDGHPHVHGANLGMRTSAYLAAGGFSNASSSEDVALVAALEQAGMRIARLASPVVNTSARRSARASGGFADYLLRLEAALLAASPSLGLEHHHHHH”, the protein production result is “failed”.
With “MDGSFVQHSVRVLQELNKQREKGQYCDATLDVGGLVFKAHWSVLACCSHFFQRIYGDGTGGSVVLPAGFAEIFGLLLDFFYTGHLALTSGNRDQVLLAAKELRVPEAVELCQSFQPQTSVGQAQSGLGQPASQDVKSHLKEPTDLDEEEVFKTLSLASVDQEPRDTEQPQLGTPAQSSTAFLCGKLTQALKPSPSEDKESEDCKEPPRPFEAGGAPLQGESNEWEVVVQVEDDRDGDYVSEPETVLTRRKSKVIRKPCAAEPALGAGSLTAEPTDSRKGAAVPVECPTCHKKFLSKYYLKVHNRKHTGEKPFECPKCGKCYFRKENLLEHEARNCMNRSEQVFTCSVCQETFRRRMELRLHMVSHTGEMPYKCSSCSQQFMQKKDLQSHMIKLHGAPKPHAVSASQGWGSGGSGTAQSCPHLDVLPLPVSPTCSAPLVPSASCLGRSYSCTRLLSIVEKSSLCVRNAGTGPRAATGCRCTSRPSTGMKGLMSVSSAAMPSPRRPTSTCTCARTPARSLSSATSVGRPSAPKFGQAQPHPHGREAFQL” the entry was “not failed”; with “MDGVLKGFFVVSIVLLIGYILGKTKALGPEGSKVLSTLTFMVGLPCLMFSAIASRHINDVLSATGLISVVTAVAVMLVFTVAGTIARWGVRRTTIGALSVGIVNSTNLGVPLSLYILGSATYVTPIMLFQLAIVTPIALTILDLTDPAGKKVSVWRTLSIPFRNPVTVAAILGVLVSALGIQLPSLVLDPLALVAQLAVPLMLIIFGMSLHGLSVRPGIDDRVPTTIAVILKSAIQPVLAWVLAAFVFQLDPFSTFVVTACAILPTGQNVVLYSVRYGVGQGIAQSTAVFTSILAVPLLLGAAWLFG”, “failed”.
With “MDGYNIFIVLLAVYIAGLVAIGWYFNKKQKSVTDFWLAGRRIGPSALGFSAAASWLTAGGILAVIGYYMLQGMGSIWAFVAPNILALLIIALLVGKIKNLPAITQPELLEQRYGSAVRWPIALIITVVMILFAVADVTGFSLVLQVFYGVDPLYAAAIVAIAVSLYVTMGGLSAVVWTDVVQFAFLSIFTIAMAFAAVGTVADGGLNTPAISSSELFGNVSYDWWNPLSIGIPMVLIFVFAIIPGWITEQDPWQKVWAAKDAKSARLGMVFGSLMITVVFAACAVIAIAFNNIYPDIAGMGFPAGMAQAEPALLAFVSERFVSAPLIVALSAIGLAAASMSCADTFATSGASCISRDIFQRYIKPDATMKEMLVVNRISVLIIVLAATAGSFVIPNIIDAIHIATFIASASYFFPLMGGLYWKRATKEGAFAGMVVGFVVQVTLVSLDLIKTPPMAANYLESVHPALMSHGVIVGMGLSAIAFFGVSLMTKPSSRINLAPFFEEEAEELAHYEAREIDEKDPTYGAFLKNVDEKVAGERAHLQLNLRASGALSWHELVEKLKSSSPAWVTPTGLDSVYRLTHGDMLACVTVTRGSEERDIWLKAEPRLETVGRQKKELFTAYEELKKVLGQKGVNLDFY” the entry was “failed”; with “MDGYTGSHVVRCALRLAPLVFVRPGELRKAEWKDIDLDGGEWRYTVTKTNTPHIVPLSTQAVEILKELQALTGRSRFVFPGARTNGRPMSDNAILAALRRMGIDKEEMSGHGFRAMARTILDEVLGVRPDFIEHQLAHSVRDPLEHHHHHH”, “failed”; with “MDIKDLMKKWSEQAENMRMFHMQELKENGSEWKKLLQENLKDCKGKKVLDAGCGTGFLAILLAQDGWEVTAIDSSEAMLEEGKKTAEELGLSDKITFLLKDAHSTDFPEHLFDAVVSRHASWLFTAPETVYKEWKRILKPGGIMLNIDANWLKPIWNTDEFEKFKSYEAELVKQYGEFRDYYHDEQMINILKKFPLAYINRPEWDEKMLKKIDFKEIASRLLSKEKYMDAFQAARYKTIPMFVIKAKNIE”, “failed”.
Under “MDIKKIAQDDKSLGIDESNKDLFQDGILNIALFGVDSREHDNVGRSDSIIIATIDTKHDKIKLTSLMRDSYVEVDGHGKTKLTHAYAYGGPTLALKTINENFGLDIKDYVTVNFDNLAEIIDDLGGVPINIKPYEVKEVNNYAKNVAEIAGREYTPVSEGEQVLNGAQAVGYSRIRYVGDGDYERTERQRNVLDAIIKKLSALKPSEYPETIKKLLPYVETNLTPSKILSIATSVASTGIPPVENMRFPLDGYCKGEMIDGVWYLTFDEAKTKEQIQDYIYKDVNPKLEHHHHHH” stands “failed”; under “MDILKLLMVAILIGLTAFFVAVEFAIIKVRSSRIDQLVSEKRRGALAAKKVTSNLDEYLSACQLGITITALGLGWLGEPTIKHLLEPLFLKLNLSPAIASTVSFIIAFAVITFLHVVIGELAPKTFAIQRAEQVSLLLSKPLIYFYRIMYPFIWALNGSARLVTGLFGLHPASEHEVAHSEEELRLILSESYESGEINQREFKYVNNIFEFDNRVAKEIMVPRTEVIGLYEDEPFETHIKIIAQEKYTRYPVFGEDKDEIIGMVNVKDLFIRYIDGNRDEECSITPYTRPVIEVLENIPIHDLLLQMQRKHIPLAVLYDEYGGTAGIVTLEDILEEIVGEIRDEYDEDEHPPIEHISEGCKIVEGKVLISEVNDLFGIHLIADDVDTIGGWIMVQKQIVAEGDIIEKHGFSFKVLEKDMHQIKRVEIKKVEE”, “failed”; under “MDIMNVYKRGNTFQYDFYFKGKRYRKSGYLTKRDAQIAMNIKLNDLLEGYDTDNNLTFVDFYYRWLEITKLDIINDTSYKRYITAIKAFKDCFGNKLISDIDSLSYQKFLKDYGRGHFLNNGQLRPRTSNTVSKMNNCLKQAFESAVEQGYIKKNPAKNAKPFGLKSSQSIDDKFMSITQMKNLIHYVKKNDALSHLCIYILIITGSRFKPVQHLRYEDLNFKKSCIHLNDTKNKYSKRNVKVRIKDLEYIQSVINKHPINQNGYIFHNFINFISYSAINDVLVRFCLKYKYDKYTLKSLRHTHCSYLLAKGISIQYISKRLGHADIHTTLKIYSHLIKEFEDSENSLIEKNLNDLFSD”, “failed”.
Take “MDKHNEEHIYVAIDLKSFYASVECRERGKDALTTNLVVADPTRTEKTICLAVSPALKAYGIPGRARLFEVVQRVKEVNKLRLSKLMASGHAAGTVERRKKYVTEIDIAENDITESTMAGFDYASYNANLLDAHPEYELTYIVAPPRMALYMDYSTRIYNIYLKYIAPEDISVYSIDEVFMDVTHYLRTYHMTARELASKMIDDVLKDTGITATCGIGTNLYLCKIAMDIMAKHAMPDERGVRIAELNENSYRRKLWDHRPITDFWRVGAGYAKKLEAAGMYTMGDVARCSTGGSNDFYNEEKLYKMFGINAELLIDHAWGYEPVTIADIKAYRPQTNSISSGQVLQEPYDYEKTKLIVREMTDLLVLDLVDKRLVTDQIVLTIGYDIANLSNKADSCLGNNYDHAVNNKGRDSIGGKKGTHRDYTGEITIDRYGRKVPKHAHGTANLGRYTSSTRIIMDAVMELYDRIIDPSLLTRRITVVANRVCDESKVQESEQFEQLDLFTDYQARAKEKKKEDEALSKERKLQEAMISVKKKYGKNAMLKGMNLEEGATTISRNNQIGGHKA”: the protein production result is “failed”.
With “MDKIGMTNQITGVISKFDTNIRTIVLNAKDGIFTCNLMIFVKNTDKLTTLMDKLRKVQGLEHHHHHH” the entry was “failed”; with “MDKIHAMQLFIRVADLESFSRAAETLALPKGSVSRQIQALESHLGVRLLHRTTRRVQLTQDGMVYYERAKDLLSNLDELDGMFQHDPASISGRLRVDMPVGFAKKMVIPHLPTFLQQYPGIELELSSSDRQVDVIREGFDCVVRVGALKDSGLIARPLGKLTQINCASPDYLARFGYPQSLEDLADHALIHYASTLGVRPPGFEVMIDGAVRWVKTGGILTVNSTETYQAACIAGLGIIQVPRTGVREALRAGDLIEILPQYRAEPLPVSLIYPHRRNLSRRVNLFMEWLGGLMKAYVD”, “failed”.
